# Test results: patent publication US20090186824A1 (INIMEX PHARMACEUTICALS, published 2009)
# Bridges are numbered along the chain shown (N, C = ends). Where no end group is shown, it is not given here. [ ]: non-standard residue; d: D form.
# B1: SEQ ID NO 2 (peptide)
# peptide: Ac-KSRIVP-NH2
# B2: SEQ ID NO 32 (peptide)
# peptide: CRIVPAC
# modifications: disulfide 1-7; not fully specified (C-terminus)
# B3: SEQ ID NO 62 (peptide)
# peptide: [code r][code r]VP-NH2
# modifications: not fully specified
# Molecular target: dipeptidyl peptidase IV (DPPIV) in plasma of ICR mouse blood (mouse, UniProt P28843 37-760)
# Sequence (P28843 37-760 limits assumed): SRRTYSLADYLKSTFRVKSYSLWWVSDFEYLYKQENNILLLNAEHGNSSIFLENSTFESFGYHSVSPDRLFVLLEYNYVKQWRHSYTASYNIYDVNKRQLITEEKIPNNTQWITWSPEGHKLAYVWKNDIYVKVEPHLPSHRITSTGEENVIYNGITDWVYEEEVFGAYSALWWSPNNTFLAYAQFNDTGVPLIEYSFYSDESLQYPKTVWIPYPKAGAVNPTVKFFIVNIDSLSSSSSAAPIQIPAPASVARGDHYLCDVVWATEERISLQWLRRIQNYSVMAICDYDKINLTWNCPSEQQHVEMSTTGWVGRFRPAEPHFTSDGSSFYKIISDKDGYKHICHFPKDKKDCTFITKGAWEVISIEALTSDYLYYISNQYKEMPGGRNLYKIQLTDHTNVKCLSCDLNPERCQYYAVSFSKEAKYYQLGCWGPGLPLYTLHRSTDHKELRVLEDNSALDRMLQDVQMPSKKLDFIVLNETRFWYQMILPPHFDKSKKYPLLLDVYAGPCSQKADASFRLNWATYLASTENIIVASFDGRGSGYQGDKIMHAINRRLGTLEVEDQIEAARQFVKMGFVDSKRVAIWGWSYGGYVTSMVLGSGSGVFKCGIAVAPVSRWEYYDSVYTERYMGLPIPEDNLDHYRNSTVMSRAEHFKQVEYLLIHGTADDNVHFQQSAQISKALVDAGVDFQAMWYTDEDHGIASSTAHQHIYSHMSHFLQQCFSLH
# Assay: cell-based or functional assay
binder,measurement,value
B1,% DPPIV Activity (Saline),93 % relative to saline control
B2,% DPPIV Activity (Saline),30 % relative to saline control
B3,% DPPIV Activity (Saline),51 % relative to saline control
